Data: patent US20100189657A1, “INTRAMOLECULARLY QUENCHED FLUOROCHROME CONJUGATES AND METHODS OF USE” (THE GENERAL HOSPITAL CORPORATION, priority 2006, published 2010)
Entries after “also recorded” stand apart in the source; their conditions may differ.

Assay: Aqueous solubility of the probes
Format: physicochemical
Details: aqueous solutions
Protocol: The absorption spectra of equimolar solutions of the probes based on the absorption peak of the free dye, CyTE-777 are shown in FIG. 4. […] The absorption band due to dye aggregation becomes slightly weaker with increasing PEG chain length. […] To determine if the aggregated fluorophores lead to quenching, fluorescence spectra of all the three probes were measured and compared to the fluorescence spectrum of an equimolar solution of CyTE-777 (FIG. 5).
These cysteine proteases are known to be important in biological processes and have similar substrate selectivity. […] The Leu-Arg dipeptide cathepsin S substrate was previously reported to be partially but not completely selective to cathepsin S. The selectivity observed for cathepsin S in the present study is higher than what was expected from the literature reports.
For `CC(C)C[C@H](NC(=O)CCNC(=O)CCOCCOCCOCCOCCNC(=O)CCSC1=C(/C=C/C2=[N+](CCCCS(=O)(=O)O)c3ccccc3C2(C)C)CCC/C1=C\C=C1\N(CCCCS(=O)(=O)O)c2ccccc2C1(C)C)C(=O)N[C@@H](CCCNC(=N)N)C(=O)NCCC(=O)NCCCC[C@H](NC(=O)CCNC(=O)[C@H](CCCNC(=N)N)NC(=O)[C@H](CC(C)C)NC(=O)CCNC(=O)CCOCCOCCOCCOCCNC(=O)CCSC1=C(/C=C/C2=[N+](CCCCS(=O)(=O)O)c3ccccc3C2(C)C)CCC/C1=C\C=C1\N(CCCCS(=O)(=O)O)c2ccccc2C1(C)C)C(=O)NCCCC[C@H](NC(=O)[C@H](CCCCNC(=O)CCNC(=O)[C@H](CCCNC(=N)N)NC(=O)[C@H](CC(C)C)NC(=O)CCNC(=O)CCOCCOCCOCCOCCNC(=O)CCSC1=C(/C=C/C2=[N+](CCCCS(=O)(=O)O)c3ccccc3C2(C)C)CCC/C1=C\C=C1\N(CCCCS(=O)(=O)O)c2ccccc2C1(C)C)NC(=O)CCNC(=O)[C@H](CCCNC(=N)N)NC(=O)[C@H](CC(C)C)NC(=O)CCNC(=O)CCOCCOCCOCCOCCNC(=O)CCSC1=C(/C=C/C2=[N+](CCCCS(=O)(=O)O)c3ccccc3C2(C)C)CCC/C1=C\C=C1\N(CCCCS(=O)(=O)O)c2ccccc2C1(C)C)C(=O)NCCC(=O)O` [CyPEG-1], the aqueous solubility was “practically insoluble”.
In the case of `CC(C)C[C@H](NC(=O)CCNC(=O)CCOCCOCCOCCOCCNC(=O)CCOCCOCCOCCOCCNC(=O)CCSC1=C(/C=C/C2=[N+](CCCCS(=O)(=O)O)c3ccccc3C2(C)C)CCC/C1=C\C=C1\N(CCCCS(=O)(=O)O)c2ccccc2C1(C)C)C(=O)N[C@@H](CCCNC(=N)N)C(=O)NCCC(=O)NCCCC[C@H](NC(=O)CCNC(=O)[C@H](CCCNC(=N)N)NC(=O)[C@H](CC(C)C)NC(=O)CCNC(=O)CCOCCOCCOCCOCCNC(=O)CCOCCOCCOCCOCCNC(=O)CCSC1=C(/C=C/C2=[N+](CCCCS(=O)(=O)O)c3ccccc3C2(C)C)CCC/C1=C\C=C1\N(CCCCS(=O)(=O)O)c2ccccc2C1(C)C)C(=O)NCCCC[C@H](NC(=O)[C@H](CCCCNC(=O)CCNC(=O)[C@H](CCCNC(=N)N)NC(=O)[C@H](CC(C)C)NC(=O)CCNC(=O)CCOCCOCCOCCOCCNC(=O)CCOCCOCCOCCOCCNC(=O)CCSC1=C(/C=C/C2=[N+](CCCCS(=O)(=O)O)c3ccccc3C2(C)C)CCC/C1=C\C=C1\N(CCCCS(=O)(=O)O)c2ccccc2C1(C)C)NC(=O)CCNC(=O)[C@H](CCCNC(=N)N)NC(=O)[C@H](CC(C)C)NC(=O)CCNC(=O)CCOCCOCCOCCOCCNC(=O)CCOCCOCCOCCOCCNC(=O)CCSC1=C(/C=C/C2=[N+](CCCCS(=O)(=O)O)c3ccccc3C2(C)C)CCC/C1=C\C=C1\N(CCCCS(=O)(=O)O)c2ccccc2C1(C)C)C(=O)NCCC(=O)O` [CyPEG-2], the aqueous solubility is reported as “satisfactory aqueous solubility; also recorded: much higher aqueous solubility”.
For `CC(C)C[C@H](NC(=O)CCNC(=O)CCOCCOCCOCCOCCNC(=O)CCOCCOCCOCCOCCNC(=O)CCOCCOCCOCCOCCNC(=O)CCSC1=C(/C=C/C2=[N+](CCCCS(=O)(=O)O)c3ccccc3C2(C)C)CCC/C1=C\C=C1\N(CCCCS(=O)(=O)O)c2ccccc2C1(C)C)C(=O)N[C@@H](CCCNC(=N)N)C(=O)NCCC(=O)NCCCC[C@H](NC(=O)CCNC(=O)[C@H](CCCNC(=N)N)NC(=O)[C@H](CC(C)C)NC(=O)CCNC(=O)CCOCCOCCOCCOCCNC(=O)CCOCCOCCOCCOCCNC(=O)CCOCCOCCOCCOCCNC(=O)CCSC1=C(/C=C/C2=[N+](CCCCS(=O)(=O)O)c3ccccc3C2(C)C)CCC/C1=C\C=C1\N(CCCCS(=O)(=O)O)c2ccccc2C1(C)C)C(=O)NCCCC[C@H](NC(=O)[C@H](CCCCNC(=O)CCNC(=O)[C@H](CCCNC(=N)N)NC(=O)[C@H](CC(C)C)NC(=O)CCNC(=O)CCOCCOCCOCCOCCNC(=O)CCOCCOCCOCCOCCNC(=O)CCOCCOCCOCCOCCNC(=O)CCSC1=C(/C=C/C2=[N+](CCCCS(=O)(=O)O)c3ccccc3C2(C)C)CCC/C1=C\C=C1\N(CCCCS(=O)(=O)O)c2ccccc2C1(C)C)NC(=O)CCNC(=O)[C@H](CCCNC(=N)N)NC(=O)[C@H](CC(C)C)NC(=O)CCNC(=O)CCOCCOCCOCCOCCNC(=O)CCOCCOCCOCCOCCNC(=O)CCOCCOCCOCCOCCNC(=O)CCSC1=C(/C=C/C2=[N+](CCCCS(=O)(=O)O)c3ccccc3C2(C)C)CCC/C1=C\C=C1\N(CCCCS(=O)(=O)O)c2ccccc2C1(C)C)C(=O)NCCC(=O)O` [CyPEG-3], the aqueous solubility was “satisfactory aqueous solubility”.
